{"source": "patent US20240287172A1", "about": "(SCIRHOM, published 2024)", "binders": {"B1": {"name": "antibody 48 (antibody, V domains shown)", "VH": "QVQLQQSGTELVRPGTSVKVSCKASGYAFTNYLIEWVKQRPGQGLEWIGVINPGSGFTKYNEKFKGKATLTADKSSSTVYMHLSSLTSEDSAVYFCARGLYRAMDYWGQGTSVTVSS", "VL": "DIQMTQSPASQSASLGESVTITCLASQTIATWLAWYQQKPGKSPQLLIYGATTLADGVPSRFSGGGSGTKFSFKISSLQAEDFVSYYCQQLYSTPYTFGGGTKLEIK", "notes": "mouse IgG, kappa light chain; also called clone #48; purified antibody 48"}, "B2": {"name": "antibody 50 (antibody, V domains shown)", "VH": "B1 VH with T9A, T16A, T30S, V79A, H82Q", "VL": "B1 VL with A30G, G50A, T52A, T53S, S85N, L91I", "notes": "mouse IgG, kappa light chain; also called clone #50; purified antibody 50"}, "B3": {"name": "antibody 34 (antibody, V domains shown)", "VH": "QVTLKESGPGILQPSQTLSLTCSFSGFSLSTFSLGVGWIRQSSGKGLEWLAHIWWDDEKYYNPALKSRLTISKDTSKNQVFLKIANVDAADTATYYCARAYYSKSYYALDYWGQGTSVTVSS", "VL": "DIQMTQSPSSLSASLGERVSLTCRASQEISGYLSWLQQKPDGTIKRLIYAASTLDSGVPKRFSGSRSGSDYSLAISSLESEDFADYYCLQYANFPFTFGSGTKLEIK", "notes": "mouse IgG, kappa light chain; also called clone #34; purified antibody 34"}, "B4": {"name": "antibody 5 (antibody, V domains shown)", "VH": "QVTLKESGPGILQPSQTLSLTCSFSGFSLSTFGMGVGWIRQPSGKGLEWLAHIWWDDEKYYNSALKSRLTISKATSKNQAFLKIANVDTADTATYYCARISNYGSNYWYFNVWGTGTTVTVSS", "VL": "QVVLTQSPALMSASPGEKVTMTCSAGSSVSCMYWYQQKPGSSPRVLIYDTSNLASGVPARFTGSGSGTSYSLTISRMEAEDAASYYCQQWNSYPLTFGAGTKLELK", "notes": "mouse IgG, kappa light chain; also called clone #5; purified antibody 5"}, "B5": {"name": "antibody 44 (antibody, V domains shown)", "VH": "B4 VH with G44E, E58D, S63P, A74D, A80I, A85T, D91E, A98S, S101G, N111D", "VL": "QIVLTQSPAVMSASPGEKVTMTCTASSSVYYMYWYQQTPGSSPRLLIYDTSNLASGVPVRFSGSGSGTSYSLTISRMEAEDAATYYCQQWNTYPLTFGAGTKLELK", "notes": "mouse IgG, kappa light chain; also called clone #44; purified antibody 44"}, "B6": {"name": "antibody 43 (antibody, V domains shown)", "VH": "B4 VH with T3A, P42S, H52N, E58D, S63P, A74D, T75A, S101G, N111D", "VL": "QIVLTQSPAIMSASPGERVTMTCSANSRISYMYWYQQKPGSSPRLLIYDTSNLASGVPVRFSGSGSGTSYSLTISRMEAEDAATYNCQQWSSYPLTFGAGTKLELK", "notes": "mouse IgG, kappa light chain; also called clone #43; purified antibody 43"}, "B7": {"name": "antibody 3 (antibody, V domains shown)", "VH": "QVTLKESGPGILQPSQTLSLTCSFSGFSLTTFAMGIGWVRQPSGKGLEWLAHIWWDGEKYNNPVLKSRLTISKDTSKNQVFLRIANVDTPDTATYYCARISSIYYIIDNWGQGTSVTVSS", "VL": "DIVLTQSPATLSVTPGHSVSLSCRASQSISNNLHWYQKKSHESPRLLIKYVSQSISGIPSRFSGSGSGTDFTLSINSVETEDFGMYFCQQSYNWPLTFGAGTKLELK", "notes": "mouse IgG, kappa light chain; also called clone #3; purified antibody 3"}}, "key": {"hiR2-FL-G587A-T7": {"target": "T1, hiR2-FL-G587A-T7 (human, UniProt Q6PJF5 1-856)", "T1 sequence": "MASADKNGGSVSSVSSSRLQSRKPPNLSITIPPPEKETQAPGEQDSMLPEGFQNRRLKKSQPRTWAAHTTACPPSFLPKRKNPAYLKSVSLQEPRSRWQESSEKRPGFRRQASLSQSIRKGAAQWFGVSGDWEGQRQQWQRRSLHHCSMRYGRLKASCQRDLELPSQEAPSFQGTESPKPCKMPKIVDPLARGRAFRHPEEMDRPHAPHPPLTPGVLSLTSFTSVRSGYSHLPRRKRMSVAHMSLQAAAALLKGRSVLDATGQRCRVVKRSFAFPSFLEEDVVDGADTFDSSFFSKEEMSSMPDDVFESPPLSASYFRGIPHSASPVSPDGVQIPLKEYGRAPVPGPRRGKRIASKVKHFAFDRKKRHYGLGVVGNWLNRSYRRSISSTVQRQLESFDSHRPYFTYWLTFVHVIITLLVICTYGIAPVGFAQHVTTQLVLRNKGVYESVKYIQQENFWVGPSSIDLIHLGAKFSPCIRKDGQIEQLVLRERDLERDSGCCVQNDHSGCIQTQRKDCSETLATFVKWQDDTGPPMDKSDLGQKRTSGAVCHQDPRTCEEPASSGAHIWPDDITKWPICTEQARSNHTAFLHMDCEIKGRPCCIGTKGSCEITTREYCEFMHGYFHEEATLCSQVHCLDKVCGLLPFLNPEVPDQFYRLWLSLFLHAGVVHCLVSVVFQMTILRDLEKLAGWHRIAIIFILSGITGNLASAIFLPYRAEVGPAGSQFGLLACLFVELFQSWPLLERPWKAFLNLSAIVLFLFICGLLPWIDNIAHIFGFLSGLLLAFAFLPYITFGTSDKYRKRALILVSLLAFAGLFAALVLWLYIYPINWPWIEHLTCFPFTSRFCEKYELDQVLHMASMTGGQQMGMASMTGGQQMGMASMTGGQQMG", "assay": "FACS on MEF-DKO cells expressing the variant, 3 µg/ml antibody", "how_it_was_run": "(§1)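 Flow cytometry read-out of binding to variant-expressing cells after two-step staining on ice: 1 h with antibody at 3 μg/ml, then 1 h with PE-labelled goat anti-mouse IgG F(ab′)2 diluted 1:100. Controls received FACS buffer without primary antibody.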"}, "hiR2-FL-G546A-T7": {"target": "T2, hiR2-FL-G546A-T7 (human, UniProt Q6PJF5 1-856)", "T2 sequence": "T1 sequence with G546A, A587G", "assay": "FACS on MEF-DKO cells expressing the variant, 3 µg/ml antibody", "how_it_was_run": "as §1"}}, "note": "Substitutions are numbered along the chain they refer to.", "data": [{"binder": "B1", "values": [{"measurement": "loss of binding vs wild type", "setting": "hiR2-FL-G587A-T7", "result": "≥ 30", "unit": "%"}]}, {"binder": "B2", "values": [{"measurement": "loss of binding vs wild type", "setting": "hiR2-FL-G587A-T7", "result": "≥ 60", "unit": "%"}]}, {"binder": "B3", "values": [{"measurement": "loss of binding vs wild type", "setting": "hiR2-FL-G546A-T7", "result": "≥ 30", "unit": "%"}]}, {"binder": "B4", "values": [{"measurement": "loss of binding vs wild type", "setting": "hiR2-FL-G546A-T7", "result": "≥ 30", "unit": "%"}]}, {"binder": "B5", "values": [{"measurement": "loss of binding vs wild type", "setting": "hiR2-FL-G546A-T7", "result": "≥ 30", "unit": "%"}, {"measurement": "loss of binding vs wild type", "setting": "hiR2-FL-G587A-T7", "result": "≥ 30", "unit": "%"}]}, {"binder": "B6", "values": [{"measurement": "loss of binding vs wild type", "setting": "hiR2-FL-G546A-T7", "result": "≥ 30", "unit": "%"}, {"measurement": "loss of binding vs wild type", "setting": "hiR2-FL-G587A-T7", "result": "≥ 30", "unit": "%"}]}, {"binder": "B7", "values": [{"measurement": "loss of binding vs wild type", "setting": "hiR2-FL-G546A-T7", "result": "≥ 30", "unit": "%"}]}]}
